Columns and labels:
[1] = tested on: HeLa Kyoto; experiment: melting temperature (median over replicates), in situ; higher = more thermally stable
[2] = tested on: HeLa Kyoto; experiment: solubility in G1/S (NP-40 vs SDS abundance) (log2 ratio); higher = more soluble; details: cell cycle stage: G1/S
[3] = tested on: HeLa Kyoto; experiment: thermal stability score vs G1/S (z-score of summed log2 fold changes over temperatures); higher = more thermally stable than in G1/S
[4] = tested on: HeLa Kyoto; experiment: solubility change mitosis vs G1/S (difference of NP-40 vs SDS log2 ratios) (log2 ratio difference); higher = more soluble in mitosis
[5] = cell cycle stage: early G1 (4.5 h after nocodazole release)
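Throughout, for melting temperature (median over replicates), in situ: HeLa Kyoto cells synchronized by double thymidine or nocodazole block, proteins quantified by TMT10plex mass spectrometry, three independent biological replicates.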
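Throughout, for solubility change mitosis vs G1/S (difference of NP-40 vs SDS log2 ratios): synchronized HeLa Kyoto cells (double thymidine block for G1/S, nocodazole release for mitosis), protein amounts in NP-40 versus SDS lysates quantified by mass spectrometry, three biological replicates.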
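Throughout, for solubility in G1/S (NP-40 vs SDS abundance): HeLa Kyoto cells arrested at G1/S by double thymidine block, proteins quantified by TMT10plex mass spectrometry in mild NP-40 versus SDS extracts, three biological replicates.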
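Throughout, for thermal stability score vs G1/S (z-score of summed log2 fold changes over temperatures): synchronized HeLa Kyoto cells, proteins quantified by TMT10plex mass spectrometry, three biological replicates, mitosis taken 0.5 h after nocodazole release, G1/S directly after double thymidine block.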

Sequence | melting temperature ([1]; cell cycle stage: G1/S) [°C] | melting temperature ([1]; cell cycle stage: mitosis) [°C] | solubility in G1/S (log2) [2] | thermal stability score [3, 5] | thermal stability score ([3]; cell cycle stage: mitosis) | solubility change mitosis (log2) [4]
MAAPGAPAEYGYIRTVLGQQILGQLDSSSLALPSEAKLKLAGSSGRGGQTVKSLRIQEQVQQTLARKGRSSVGNGNLHRTSSVPEYVYNLHLVENDFVGGRSPVPKTYDMLKAGTTATYEGRWGRGTAQYSSQKSVEERSLRHPLRRLEISPDSSPERAHYTHSDYQYSQRSQAGHTLHHQESRRAALLVPPRYARSEIVGVSRAGTTSRQRHFDTYHRQYQHGSVSDTVFDSIPANPALLTYPRPGTSRSMGNLLEKENYLTAGLTVGQVRPLVPLQPVTQNRASRSSWHQSSFHSTRTLREAGPSVAVDSSGRRAHLTVGQAAAGGSGNLLTERSTFTDSQLGNADMEMTLERAVSMLEADHMLPSRISAAATFIQHECFQKSEARKRVNQLRGILKLLQLLKVQNEDVQRAVCGALRNLVFEDNDNKLEVAELNGVPRLLQVLKQTRDLETKKQITDHTVNLRSRNGWPGAVAHACNPSTLGGQGGRITRSGVRDQPDQHGLLWNLSSNDKLKNLMITEALLTLTENIIIPFSGWPEGDYPKANGLLDFDIFYNVTGCLRNMSSAGADGRKAMRRCDGLIDSLVHYVRGTIADYQPDDKATENCVCILHNLSYQLEAELPEKYSQNIYIQNRNIQTDNNKSIGCFGSRSRKVKEQYQDVPMPEEKSNPKGVEWLWHSIVIRMYLSLIAKSVRNYTQEASLGALQNLTAGSGPMPTSVAQTVVQKESGLQHTRKMLHVGDPSVKKTAISLLRNLSRNLSLQNEIAKETLPDLVSIIPDTVPSTDLLIETTASACYTLNNIIQNSYQNARDLLNTGGIQKIMAISAGDAYASNKASKAASVLLYSLWAHTELHHAYKKAQFKKTDFVNSRTAKAYHSLKD [PKP2] | 50.7 | 49.9 | -0.953 | -1.03 | -0.99 | 0.0433
MAAPGLRLGAGRLFEMPAVLERLSRYNSTSQAFAEVLRLPKQQLRKLLYPLQEVERFLAPYGRQDLHLRIFDPSPEDIARADNIFTATERNRIDYVSSAVRIDHAPDLPRPEVCFIGRSNVGKSSLIKALFSLAPEVEVRVSKKPGHTKKMNFFKVGKHFTVVDMPGYGFRAPEDFVDMVETYLKERRNLKRTFLLVDSVVGIQKTDNIAIEMCEEFALPYVIVLTKIDKSSKGHLLKQVLQIQKFVNMKTQGCFPQLFPVSAVTFSGIHLLRCFIASVTGSLD [GTPBP8] | 50.8 | 52.8 | 0.0451 | -0.696 | 0.105 | -0.0931
MAAPGPALCLFDVDGTLTAPRQKITKEMDDFLQKLRQKIKIGVVGGSDFEKVQEQLGNDVVEKYDYVFPENGLVAYKDGKLLCRQNIQSHLGEALIQDLINYCLSYIAKIKLPKKRGTFIEFRNGMLNVSPIGRSCSQEERIEFYELDKKENIRQKFVADLRKEFAGKGLTFSIGGQISFDVFPDGWDKRYCLRHVENDGYKTIYFFGDKTMPGGNDHEIFTDPRTMGYSVTAPEDTRRICELLFS [PMM2] | 53 | 53.3 | 0.526 | 12.5 | 3.25 | -0.0066
MAAPGSCALWSYCGRGWSRAMRGCQLLGLRSSWPGDLLSARLLSQEKRAAETHFGFETVSEEEKGGKVYQVFESVAKKYDVMNDMMSLGIHRVWKDLLLWKMHPLPGTQLLDVAGGTGDIAFRFLNYVQSQHQRKQKRQLRAQQNLSWEEIAKEYQNEEDSLGGSRVVVCDINKEMLKVGKQKALAQGYRAGLAWVLGDAEELPFDDDKFDIYTIAFGIRNVTHIDQALQEAHRVLKPGGRFLCLEFSQVNNPLISRLYDLYSFQVIPVLGEVIAGDWKSYQYLVESIRRFPSQEEFKDMIEDAGFHKVTYESLTSGIVAIHSGFKL [COQ5] | 54.4 | 56.3 | -0.0892 | -1.07 | -0.586 | 0.0212
MAAPILRSFSWGRWSGTLNLSVLLPLGLRKAHSGAQGLLAAQKARGLFKDFFPETGTKIELPELFDRGTASFPQTIYCGFDPTADSLHVGHLLALLGLFHLQRAGHNVIALVGGATARLGDPSGRTKEREALETERVRANARALRLGLEALAANHQQLFTDGRSWGSFTVLDNSAWYQKQHLVDFLAAVGGHFRMGTLLSRQSVQLRLKSPEGMSLAEFFYQVLQAYDFYYLFQRYGCRVQLGGSDQLGNIMSGYEFINKLTGEDVFGITVPLITSTTGAKLGKSAGNAVWLNRDKTSPFELYQFFVRQPDDSVERYLKLFTFLPLPEIDHIMQLHVKEPERRGPQKRLAAEVTKLVHGREGLDSAKRCTQALYHSSIDALEVMSDQELKELFKEAPFSEFFLDPGTSVLDTCRKANAIPDGPRGYRMITEGGVSINHQQVTNPESVLIVGQHILKNGLSLLKIGKRNFYIIKWLQL [YARS2] | 48.8 | 48.2 | 0.027 | 0.871 | 4.36 | -0.0352
MAAPLIPLSQQIPTGNSLYESYYKQVDPAYTGRVGASEAALFLKKSGLSDIILGKIWDLADPEGKGFLDKQGFYVALRLVACAQSGHEVTLSNLNLSMPPPKFHDTSSPLMVTPPSAEAHWAVRVEEKAKFDGIFESLLPINGLLSGDKVKPVLMNSKLPLDVLGRVWDLSDIDKDGHLDRDEFAVAMHLVYRALEKEPVPSALPPSLIPPSKRKKTVFPGAVPVLPASPPPKDSLRSTPSHGSVSSLNSTGSLSPKHSLKQTQPTVNWVVPVADKMRFDEIFLKTDLDLDGYVSGQEVKEIFMHSGLTQNLLAHIWALADTRQTGKLSKDQFALAMYFIQQKVSKGIDPPQVLSPDMVPPSERGTPGPDSSGSLGSGEFTGVKELDDISQEIAQLQREKYSLEQDIREKEEAIRQKTSEVQELQNDLDRETSSLQELEAQKQDAQDRLDEMDQQKAKLRDMLSDVRQKCQDETQMISSLKTQIQSQESDLKSQEDDLNRAKSELNRLQQEETQLEQSIQAGRVQLETIIKSLKSTQDEINQARSKLSQLHESRQEAHRSLEQYDQVLDGAHGASLTDLANLSEGVSLAERGSFGAMDDPFKNKALLFSNNTQELHPDPFQTEDPFKSDPFKGADPFKGDPFQNDPFAEQQTTSTDPFGGDPFKESDPFRGSATDDFFKKQTKNDPFTSDPFTKNPSLPSKLDPFESSDPFSSSSVSSKGSDPFGTLDPFGSGSFNSAEGFADFSQMSKPPPSGPFTSSLGGAGFSDDPFKSKQDTPALPPKKPAPPRPKPPSGKSTPVSQLGSADFPEAPDPFQPLGADSGDPFQSKKGFGDPFSGKDPFVPSSAAKPSKASASGFADFTSVS [EPS15L1] | 49.6 | 51.2 | 0.43 | 0.244 | 1.69 | -0.0276
MAAQCVTKVALNVSCANLLDKDIGSKSDPLCVLFLNTSGQQWYEVERTERIKNCLNPQFSKTFIIDYYFEVVQKLKFGVYDIDNKTIELSDDDFLGECECTLGQIVSSKKLTRPLVMKTGRPAGKGSITISAEEIKDNRVVLFEMEARKLDNKDLFGKSDPYLEFHKQTSDGNWLMVHRTEVVKNNLNPVWRPFKISLNSLCYGDMDKTIKVECYDYDNDGSHDLIGTFQTTMTKLKEASRSSPVEFECINEKKRQKKKSYKNSGVISVKQCEITVECTFLDYIMGGCQLNFTVGVDFTGSNGDPRSPDSLHYISPNGVNEYLTALWSVGLVIQDYDADKMFPAFGFGAQIPPQWQVSHEFPMNFNPSNPYCNGIQGIVEAYRSCLPQIKLYGPTNFSPIINHVARFAAAATQQQTASQYFVLLIITDGVITDLDETRQAIVNASRLPMSIIIVGVGGADFSAMEFLDGDGGSLRSPLGEVAIRDIVQFVPFRQFQNAPKEALAQCVLAEIPQQVVGYFNTYKLLPPKNPATKQQKQ [CPNE3] | 50.8 | 50.8 | -0.0447 | 1.91 | -0.0585 | -0.146
MAAQKDQQKDAEAEGLSGTTLLPKLIPSGAGREWLERRRATIRPWSTFVDQQRFSRPRNLGELCQRLVRNVEYYQSNYVFVFLGLILYCVVTSPMLLVALAVFFGACYILYLRTLESKLVLFGREVSPAHQYALAGGISFPFFWLAGAGSAVFWVLGATLVVIGSHAAFHQIEAVDGEELQMEPV [RABAC1] | 59.6 | 58.3 | -0.392 | -0.0851 | -0.547 | -0.0714
MAAQQRDCGGAAQLAGPAAEADPLGRFTCPVCLEVYEKPVQVPCGHVFCSACLQECLKPKKPVCGVCRSALAPGVRAVELERQIESTETSCHGCRKNFFLSKIRSHVATCSKYQNYIMEGVKATIKDASLQPRNVPNRYTFPCPYCPEKNFDQEGLVEHCKLFHSTDTKSVVCPICASMPWGDPNYRSANFREHIQRRHRFSYDTFVDYDVDEEDMMNQVLQRSIIDQ [RNF114] | 53.2 | 53.8 | 0.162 | -2.47 | -2.4 | 0.0396
